Data on 31 molecules can be found in patent US20260144882A1 (BIO THERA SOLUTIONS, published 2026).

To fix the notation:
T1: human Nectin-4 extracellular antigen hNectin-4-His (human, UniProt Q96NY8 32-349)
T1 construct: C-terminal 8xHis tag included
T1 sequence: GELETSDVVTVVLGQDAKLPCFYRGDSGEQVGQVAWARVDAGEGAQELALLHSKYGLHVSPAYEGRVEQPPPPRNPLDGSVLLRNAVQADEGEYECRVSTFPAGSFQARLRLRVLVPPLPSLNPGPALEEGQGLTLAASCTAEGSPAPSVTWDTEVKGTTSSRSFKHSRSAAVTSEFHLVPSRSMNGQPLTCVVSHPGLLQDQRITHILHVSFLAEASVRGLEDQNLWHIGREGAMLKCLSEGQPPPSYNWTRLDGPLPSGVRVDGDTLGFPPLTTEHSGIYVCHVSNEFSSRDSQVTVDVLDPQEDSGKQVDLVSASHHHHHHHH

B1: 1F3-2B2-2 scFv (scFv, V domains shown)
VH: EVQLVESGGGLVQPGGSLRLSCAASGYSFSDFGMSWVRQAPGKGLEWVSRIDPSGWSTSYADSVKGRFTISRDNSKNTLYLQMNSLRAEDTAVYYCARAELLAFDVYTASDYWGQGTLVTVSS
VL: DIQMTQSPSSLSASVGDRVTITCRASQGISSYLAWYQQKPGKAPKLLIYAASSLQSGVPSRFSGSGSGTDFTLTISSLQPEDFATYYCQQHYTTPPTFGQGTKVEIKR
notes: phage clone supernatant
B2: 1G8-2D4 scFv (scFv, V domains shown)
VH: EVQLVESGGGLVQPGGSLRLSCAASGYNFGGYAMSWVRQAPGKGLEWVSRISGTSGNNDYADSVKGRFTISRDNSKNTLYLQMNSLRAEDTAVYYCARQTEDRSYGYDLDYWGQGTLVTVSS
VL: B1 VL
notes: phage clone supernatant
B3: 1F3-2D8 scFv (scFv, V domains shown)
VH: B1 VH with F32Y, D52S, G55K, W56A, S57V, T58K, S59D
VL: B1 VL
notes: phage clone supernatant
B4: 1F3-2G9 scFv (scFv, V domains shown)
VH: EVQLVESGGGLVQPGGSLRLSCAASGFTFGGYGMSWVRQAPGKGLEWVSWISAWDGSIYYADSVKGRFTISRDNSKNTLYLQMNSLRAEDTAVYYCARAELLAFDVYTASDYWGQGTLVTVSS
VL: B1 VL
notes: phage clone supernatant
B5: 1G8-1E8 scFv (scFv, V domains shown)
VH: B2 VH with Y27F, N28T, G30D, G53S, T54Y, G56W, N58P
VL: B1 VL
notes: phage clone supernatant
B6: 1F3-2H12 scFv (scFv, V domains shown)
VH: EVQLVESGGGLVQPGGSLRLSCAASGDSFDSSGMSWVRQAPGKGLEWVSGIKWITGESYYADSVKGRFTISRDNSKNTLYLQMNSLRAEDTAVYYCARAELLAFDVYTASDYWGQGTLVTVSS
VL: B1 VL
notes: phage clone supernatant
B7: 1F3-2F6 scFv (scFv, V domains shown)
VH: B4 VH with G30S, G31D, W50R, A53Q, W54Y, D55G, S57G, Y59R
VL: B1 VL
notes: phage clone supernatant
B8: 1F3-2C6 scFv (scFv, V domains shown)
VH: EVQLVESGGGLVQPGGSLRLSCAASGDIFTNYSMSWVRQAPGKGLEWVSGIYASGSDKRYADSVKGRFTISRDNSKNTLYLQMNSLRAEDTAVYYCARAELLAFDVYTASDYWGQGTLVTVSS
VL: B1 VL
notes: phage clone supernatant
B9: 1G8-1B7 scFv (scFv, V domains shown)
VH: B2 VH with N28S, G30S, G31N, G53A, T54W, S55G, G56S, N57T, D59N
VL: B1 VL
notes: phage clone supernatant
B10: 1G8-1D7 scFv (scFv, V domains shown)
VH: EVQLVESGGGLVQPGGSLRLSCAASGGSFSNYAMSWVRQAPGKGLEWVSWIDTTSAYASYADSVKGRFTISRDNSKNTLYLQMNSLRAEDTAVYYCARQTEDRSYGYDLDYWGQGTLVTVSS
VL: B1 VL
notes: phage clone supernatant
B11: 1F3-2G10 scFv (scFv, V domains shown)
VH: B4 VH with T28N, G30S, G31N, W50R, S52K, A53P, W54T, I58T, Y59H
VL: B1 VL
notes: phage clone supernatant
B12: 1G8-1C8 scFv (scFv, V domains shown)
VH: B2 VH with Y27F, N28S, G31S, Y32S, R50A, T54S, G56D, N57S, N58P, D59R
VL: B1 VL
notes: phage clone supernatant
B13: 1G8-1B11 scFv (scFv, V domains shown)
VH: B10 VH with G27Y, S28N, W50A, T53A, T54S, S55G, A56G, Y57D, A58T, S59R
VL: B1 VL
notes: phage clone supernatant
B14: 1F3-2F1 scFv (scFv, V domains shown)
VH: B8 VH with N31G, A53Q, S54T, D57N, K58T
VL: B1 VL
notes: phage clone supernatant
B15: 1G8-1C1 scFv (scFv, V domains shown)
VH: B10 VH with G27Y, S28I, W50R, D52S, T54G, S55F, Y57G, A58P, S59D
VL: B1 VL
notes: phage clone supernatant
B16: 1G8-1D11 scFv (scFv, V domains shown)
VH: B2 VH with Y27D, N28I, G30T, S52D, S55G, G56D, N57S, N58K, D59F
VL: B1 VL
notes: phage clone supernatant
B17: 1F3-2E12 scFv (scFv, V domains shown)
VH: B6 VH with D27G, S28N, D30T, S31N, I54S, T55S, G56D, S58T
VL: B1 VL
notes: phage clone supernatant
B18: 1G8-1A7 scFv (scFv, V domains shown)
VH: B10 VH with G27Y, S28T, S30D, N31S, W50R, D52K, S55D, A56D, Y57G, A58K
VL: B1 VL
notes: phage clone supernatant
B19: 1G8-1A12 scFv (scFv, V domains shown)
VH: EVQLVESGGGLVQPGGSLRLSCAASGGTFDTNAMSWVRQAPGKGLEWVSAISTGGDNKRYADSVKGRFTISRDNSKNTLYLQMNSLRAEDTAVYYCARQTEDRSYGYDLDYWGQGTLVTVSS
VL: B1 VL
notes: phage clone supernatant
B20: 1G8-1F7 scFv (scFv, V domains shown)
VH: B19 VH with G27Y, T28S, D30Y, T31G, N32Y, S52D, T53A, G54I, D56G
VL: B1 VL
notes: phage clone supernatant
B21: 1G8-1A3 scFv (scFv, V domains shown)
VH: B2 VH with G31S, S52Y, G53P, T54G, G56W, N57S, N58P
VL: B1 VL
notes: phage clone supernatant
B22: 1F3-2F3 scFv (scFv, V domains shown)
VH: B1 VH with Y27F, S28N, F32Y, P53W, S54D, W56G, S57N, S59R
VL: B1 VL
notes: phage clone supernatant
B23: 1G8-1C10 scFv (scFv, V domains shown)
VH: B2 VH with Y27F, G30S, G31D, A33S, S52K, G53A, T54S, N57G, N58S
VL: B1 VL
notes: phage clone supernatant
B24: 1F3-2E8 scFv (scFv, V domains shown)
VH: B1 VH with F32Y, R50W, D52S, G55K, W56G, T58A
VL: B1 VL
notes: phage clone supernatant
B25: 1F3-2C9 scFv (scFv, V domains shown)
VH: B4 VH with T28N, W50R, A53P, W54G, G56S, S57T, I58P, Y59R
VL: B1 VL
notes: phage clone supernatant
B26: 1F3-2D2 scFv (scFv, V domains shown)
VH: B4 VH with T28N, G30S, G31S, W50R, A53P, W54Y, D55T, S57T, I58T, Y59H
VL: B1 VL
notes: phage clone supernatant
B27: 1G8-1E12 scFv (scFv, V domains shown)
VH: B2 VH with Y27F, G30T, G31S, G53A, T54H, S55K, G56W, N57D, N58A, D59S
VL: B1 VL
notes: phage clone supernatant
B28: 1F3-2H6 scFv (scFv, V domains shown)
VH: B1 VH with S28T, D31S, F32Y, D52K, P53S, S54D, W56G, S57D, S59H
VL: B1 VL
notes: phage clone supernatant
B29: 1G8-1E6 scFv (scFv, V domains shown)
VH: EVQLVESGGGLVQPGGSLRLSCAASGYIFTDYSMSWVRQAPGKGLEWVSRIYTDGWEKDYADSVKGRFTISRDNSKNTLYLQMNSLRAEDTAVYYCARQTEDRSYGYDLDYWGQGTLVTVSS
VL: B1 VL
notes: phage clone supernatant
B30: 1F3-2B9 scFv (scFv, V domains shown)
VH: B6 VH with D27F, S28N, S32Y, G33A, W53P, I54H, G56D, E57D, S58I
VL: B1 VL
notes: phage clone supernatant
B31: 1G8-1E10 scFv (scFv, V domains shown)
VH: B19 VH with G27D, T28S, D30S, N32Y, A50R, T53G, G54S, N57G, R59D
VL: B1 VL
notes: phage clone supernatant

Changes are numbered by the printed parent chain.

For this test, the target named is T1, human Nectin-4 extracellular antigen …. Nature of the test: ELISA, phage scFv supernatant 1:50. Here is the method:
The supernatants were diluted 50-fold, and the binding OD values of the diluted supernatants to hNectin-4-His were measured by ELISA. The samples were serially 3-fold diluted, and the EC₅₀ titer for the binding of the supernatants to the antigen was measured by ELISA. […] The light chain variable region sequence is set forth in SEQ ID NO: 25. The OD value is the measurement of ELISA, and the EC₅₀ value denotes the EC₅₀ value of the binding activity titer of the supernatant to the antigen.
(In general: In an ELISA, binding on a coated surface is turned into a signal by an enzyme label.)
With B1, the OD value is 1.59 OD. Consider B2, for which the OD value was found to be 1.58 OD. Under B3 stands 1.56 OD.

B4 displayed an OD value of 1.38 OD. Under B5 stands 1.55 OD. B6: the OD value came out at 1.59 OD. Take B7: the OD value came out at 1.52 OD. As for B8, the figure is 1.38 OD; as for B9, 1.56 OD; as for B10, 1.49 OD. As for B11, the OD value was determined as 1.54 OD. Under B12 stands 1.59 OD; under B13, 1.58 OD. B14: the OD value amounted to 1.02 OD. As for B15, the figure is 1.5 OD; as for B16, 1.59 OD. Molecule B17 gave an OD value of 1.52 OD. Under B18 stands 1.57 OD; under B19, 1.61 OD.

For the molecule B20, the OD value came to 1.58 OD. B21: the OD value is 1.62 OD. Under B22 stands 1.57 OD; under B23, 1.61 OD. For the molecule B24, the OD value is 1.56 OD. Under B25 stands 1.59 OD; under B26, 1.59 OD; under B27, 1.61 OD. Under B28 stands 1.31 OD. As for B29, the figure is 1.48 OD; as for B30, 1.57 OD; as for B31, 1.6 OD.
